From PMC9482650, “Quantitative fragmentomics allow affinity mapping of interactomes” (Nature Communications, 2022)

Columns and labels:
Test in all cases: holdup assay
Set-up in all cases: key: below the threshold = too weak to quantify, mostly under pKd 3.1 to 4
[1] = target: T1, APBA3_1, O96018
T1 sequence (O96018 389-490, limits assumed, looked up): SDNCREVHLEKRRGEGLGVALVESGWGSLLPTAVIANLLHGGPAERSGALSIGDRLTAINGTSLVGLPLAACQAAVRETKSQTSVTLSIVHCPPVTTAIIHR

[2] = target: T2, ARHGAP21, Q5T5U3
T2 sequence (Q5T5U3 45-169, limits assumed, looked up): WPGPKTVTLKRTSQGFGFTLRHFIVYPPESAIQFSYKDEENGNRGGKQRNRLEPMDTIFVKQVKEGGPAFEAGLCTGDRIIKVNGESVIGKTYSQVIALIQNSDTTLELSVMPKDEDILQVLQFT

[3] = target: T3, DFNB31_2, Q9P202
T3 sequence (Q9P202 274-371, limits assumed, looked up): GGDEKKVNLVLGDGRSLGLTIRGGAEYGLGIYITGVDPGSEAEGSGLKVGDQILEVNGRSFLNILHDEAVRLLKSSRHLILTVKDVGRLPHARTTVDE

[4] = target: DLG1_2, Q12959
[5] = target: T4, DLG3_3, Q92796
T4 sequence (Q92796 374-475, limits assumed, looked up): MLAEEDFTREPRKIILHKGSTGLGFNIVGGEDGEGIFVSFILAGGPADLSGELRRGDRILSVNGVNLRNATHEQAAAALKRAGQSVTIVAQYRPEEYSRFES

[6] = target: DLG4_1, P78352
[7] = target: DLG4_2, P78352
[8] = target: DLG4_3, P78352
[9] = target: DLG5_1, Q8TDM6
[10] = target: FRMPD2_2, Q68DX3
[11] = target: FRMPD4, Q14CM0
[12] = target: GIPC2, Q8TF65
[13] = target: GORASP2, Q9H8Y8
[14] = target: GRIP2_3, Q9C0E4
[15] = target: GRIP2_6, Q9C0E4
[16] = target: LNX1_2, Q8TBB1
[17] = target: T5, LNX2_3, Q8N448
T5 sequence (Q8N448 463-564, limits assumed, looked up): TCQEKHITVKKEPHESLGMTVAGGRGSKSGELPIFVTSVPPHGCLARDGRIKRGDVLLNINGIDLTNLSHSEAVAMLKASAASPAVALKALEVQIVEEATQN

[18] = target: T6, LRRC7, Q96NW7
T6 sequence (Q96NW7 1440-1537, limits assumed, looked up): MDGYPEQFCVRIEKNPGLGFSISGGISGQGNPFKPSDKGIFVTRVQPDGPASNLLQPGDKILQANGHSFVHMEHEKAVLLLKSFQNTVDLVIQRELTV

[19] = target: MAGI3_2, Q5TCQ9
[20] = target: MAST2, Q6P0Q8
[21] = target: T7, NHERF3_1, Q5T2W1
T7 sequence (Q5T2W1 4-100, limits assumed, looked up): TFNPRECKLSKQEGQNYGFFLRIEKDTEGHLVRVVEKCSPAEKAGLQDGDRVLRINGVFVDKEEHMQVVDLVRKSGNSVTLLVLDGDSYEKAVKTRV

[22] = target: T8, NHERF3_4, Q5T2W1
T8 sequence (Q5T2W1 373-468, limits assumed, looked up): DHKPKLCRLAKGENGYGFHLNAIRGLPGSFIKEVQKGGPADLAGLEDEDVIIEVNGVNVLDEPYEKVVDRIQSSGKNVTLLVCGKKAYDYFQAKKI

[23] = target: NHERF4_4, Q86UT5
[24] = target: T9, RHPN1, Q8TCX5
T9 sequence (Q8TCX5 508-602, limits assumed, looked up): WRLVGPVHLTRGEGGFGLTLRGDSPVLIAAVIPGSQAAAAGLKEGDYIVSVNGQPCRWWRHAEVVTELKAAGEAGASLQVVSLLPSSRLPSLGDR

[25] = target: SCRIB_1, Q14160
[26] = target: SNX27, Q96L92
[27] = target: T10, SYNJ2BP, P57105
T10 sequence (P57105 8-110, limits assumed, looked up): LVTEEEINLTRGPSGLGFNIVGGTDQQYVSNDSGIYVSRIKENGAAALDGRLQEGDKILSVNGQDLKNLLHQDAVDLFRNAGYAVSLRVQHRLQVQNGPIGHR

[28] = plain residues with an end cap or a label only (N-terminal biotin on a linker: ado-ado)
[29] = plain residues with an end cap or a label only (N-terminal biotin on a linker: ttds)

Sequence of DLG4_2, P78352 (P78352 155-259): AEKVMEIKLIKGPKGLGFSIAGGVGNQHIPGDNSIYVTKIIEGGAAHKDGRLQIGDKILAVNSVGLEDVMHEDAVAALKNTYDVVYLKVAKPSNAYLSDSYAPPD
Sequence of DLG1_2, Q12959 (Q12959 314-412): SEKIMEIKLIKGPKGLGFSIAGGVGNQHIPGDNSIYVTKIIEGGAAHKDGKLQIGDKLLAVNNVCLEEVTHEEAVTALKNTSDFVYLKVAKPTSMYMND
Sequence of GIPC2, Q8TF65 (Q8TF65 112-203): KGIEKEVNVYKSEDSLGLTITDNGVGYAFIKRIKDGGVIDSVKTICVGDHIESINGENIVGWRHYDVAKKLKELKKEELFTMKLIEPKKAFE
Sequence of FRMPD2_2, Q68DX3 (Q68DX3 944-1038): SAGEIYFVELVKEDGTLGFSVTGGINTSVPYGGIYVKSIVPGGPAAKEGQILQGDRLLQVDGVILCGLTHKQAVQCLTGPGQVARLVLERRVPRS
Sequence of GRIP2_3, Q9C0E4 (Q9C0E4 238-339): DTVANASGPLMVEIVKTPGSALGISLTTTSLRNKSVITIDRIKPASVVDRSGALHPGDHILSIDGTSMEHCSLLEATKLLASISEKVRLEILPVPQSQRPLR
Sequence of LNX1_2, Q8TBB1 (Q8TBB1 371-470): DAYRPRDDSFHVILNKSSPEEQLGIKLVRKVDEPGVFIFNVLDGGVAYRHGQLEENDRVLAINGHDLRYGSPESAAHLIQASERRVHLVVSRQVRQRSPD
Sequence of DLG5_1, Q8TDM6 (Q8TDM6 617-713): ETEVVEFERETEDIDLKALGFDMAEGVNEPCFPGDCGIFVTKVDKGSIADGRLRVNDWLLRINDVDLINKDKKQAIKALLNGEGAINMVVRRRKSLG
Sequence of DLG4_1, P78352 (P78352 62-152): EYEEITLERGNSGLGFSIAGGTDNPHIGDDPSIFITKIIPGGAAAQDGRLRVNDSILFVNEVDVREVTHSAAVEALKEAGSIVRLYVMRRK
Sequence of GRIP2_6, Q9C0E4 (Q9C0E4 648-740): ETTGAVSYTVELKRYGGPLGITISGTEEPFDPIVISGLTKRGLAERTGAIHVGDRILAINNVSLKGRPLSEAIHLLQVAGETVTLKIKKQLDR
Sequence of SCRIB_1, Q14160 (Q14160 718-814): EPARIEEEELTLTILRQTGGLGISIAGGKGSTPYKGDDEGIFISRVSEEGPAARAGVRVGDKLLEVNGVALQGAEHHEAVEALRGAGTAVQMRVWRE
Sequence of DLG4_3, P78352 (P78352 306-403): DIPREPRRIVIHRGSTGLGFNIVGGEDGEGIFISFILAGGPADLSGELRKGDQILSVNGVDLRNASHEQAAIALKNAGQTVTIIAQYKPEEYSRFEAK
Sequence of MAST2, Q6P0Q8 (Q6P0Q8 1099-1202): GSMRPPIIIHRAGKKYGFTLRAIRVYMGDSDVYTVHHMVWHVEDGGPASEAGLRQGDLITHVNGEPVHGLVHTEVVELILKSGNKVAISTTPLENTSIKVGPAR
Sequence of NHERF4_4, Q86UT5 (Q86UT5 464-550): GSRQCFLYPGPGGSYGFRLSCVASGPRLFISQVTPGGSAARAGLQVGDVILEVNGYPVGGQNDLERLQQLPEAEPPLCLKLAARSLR
Sequence of MAGI3_2, Q5TCQ9 (Q5TCQ9 398-503): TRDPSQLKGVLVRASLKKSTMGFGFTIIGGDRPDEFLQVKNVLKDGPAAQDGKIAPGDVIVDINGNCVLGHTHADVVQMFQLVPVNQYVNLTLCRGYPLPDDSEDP
Sequence of FRMPD4, Q14CM0 (Q14CM0 67-160): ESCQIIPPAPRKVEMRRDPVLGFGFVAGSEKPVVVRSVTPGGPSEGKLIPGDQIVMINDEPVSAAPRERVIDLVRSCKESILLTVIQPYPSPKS

B1: DGKI, O75912 (peptide)
chain: IGHEDLETAV
pKd [1, 28]: below the threshold | pKd [2, 28]: below the threshold | pKd [3, 28]: below the threshold | pKd [4, 28]: 5.11 | pKd [5, 28]: 4.02 | pKd [6, 28]: 4.61 | pKd [7, 28]: 4.97 | pKd [8, 28]: below the threshold | pKd [9, 28]: below the threshold | pKd [10, 28]: 5.22 | pKd [11, 28]: 3.9 | pKd [12, 28]: 3.6 | pKd [13, 28]: below the threshold | pKd [14, 28]: below the threshold | pKd [15, 28]: below the threshold | pKd [16, 28]: below the threshold | pKd [17, 28]: below the threshold | pKd [18, 28]: 3.93 | pKd [19, 28]: 4.56 | pKd [20, 28]: 5.47 | pKd [21, 28]: 4.75 | pKd [22, 28]: below the threshold | pKd [23, 28]: below the threshold | pKd [24, 28]: 4.77 | pKd [25, 28]: 4.49 | pKd [26, 28]: 5.73 | pKd [27, 28]: 5.25

B2: MAPK12, P53778 (peptide)
chain: GARVSKETPL
pKd [1, 29]: below the threshold | pKd [2, 29]: below the threshold | pKd [3, 29]: below the threshold | pKd [4, 29]: 4.71 | pKd [5, 29]: 4.01 | pKd [6, 29]: below the threshold | pKd [7, 29]: 4.45 | pKd [8, 29]: 4.03 | pKd [9, 29]: below the threshold | pKd [10, 29]: below the threshold | pKd [11, 29]: 4.1 | pKd [12, 29]: below the threshold | pKd [13, 29]: below the threshold | pKd [14, 29]: below the threshold | pKd [15, 29]: below the threshold | pKd [16, 29]: below the threshold | pKd [17, 29]: below the threshold | pKd [18, 29]: below the threshold | pKd [19, 29]: 4.17 | pKd [20, 29]: 4.78 | pKd [21, 29]: 5.56 | pKd [22, 29]: 3.72 | pKd [23, 29]: below the threshold | pKd [24, 29]: below the threshold | pKd [25, 29]: 4.94 | pKd [26, 29]: 5 | pKd [27, 29]: 4.69

B3: PODXL, O00592 (peptide)
chain: DLDEEEDTHL
pKd [1, 29]: below the threshold | pKd [2, 29]: 3.56 | pKd [3, 29]: below the threshold | pKd [4, 29]: below the threshold | pKd [5, 29]: below the threshold | pKd [6, 29]: below the threshold | pKd [7, 29]: below the threshold | pKd [8, 29]: below the threshold | pKd [9, 29]: below the threshold | pKd [10, 29]: below the threshold | pKd [11, 29]: 4.7 | pKd [12, 29]: below the threshold | pKd [13, 29]: 3.48 | pKd [14, 29]: below the threshold | pKd [15, 29]: below the threshold | pKd [16, 29]: below the threshold | pKd [17, 29]: below the threshold | pKd [18, 29]: below the threshold | pKd [19, 29]: below the threshold | pKd [20, 29]: 5.31 | pKd [21, 29]: 4.5 | pKd [22, 29]: below the threshold | pKd [23, 29]: below the threshold | pKd [24, 29]: 4.1 | pKd [25, 29]: 5.08 | pKd [26, 29]: 5.15 | pKd [27, 29]: below the threshold
